# Data: the domain aggregation screens of Martell et al. (2025)
# Assay: soluble fraction after stress (log2 fold change); higher = more stays soluble; pooled small domains, quantitative proteomics
# Conditions: stress: pH 4
# Procedure, shortened: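 High-throughput quantitative proteomics was run on pooled custom libraries of small protein domains following pH 4 stress. Fold changes are on a log2 scale; higher values mean more of a domain remained soluble. The fold change in soluble amount is taken as a measure of aggregation propensity.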
row,Sequence,soluble fraction (log2)
1,HMEYNLTLEELNRDLYIRGEIWNVGDVVKTTDGDEGTIIRKGTNYVVFEDLRRVWLHNLEEVK,-1.64
2,HMEYREFEAMTIRAIATLPPTQGHVIMLSRFEGLDNKEIALRLNLSLQTVKNTLTQGLKELKNKMRKLP,-0.119
3,HMEYSAAYDRELESIFNLTERGKWEEAEAEVGLLLQQYPEDKTLLRISEWVATQKTILREQAIEDRIRS,-0.48
4,HMEYSYKLIDLLVDRFSEEGVDPEEAREYINLFHRFSQGLDPDKRDITKYSWDELYRTVNDKKDS,-0.344
5,HMEYTVNHYPEKHRFEVVEDGLTAYVEYRLRGDALDIIHTIVPKNLEGRGIAATLVETAYKYAKEQ,-1.35
6,HMFAAIFADDSGFTTRSKRFGPYVEEIAADWQAVKQLSDEDAKQALVPLVKKIELALSTLQQFVSSV,-0.405
7,HMFAATGTVNTEGSSLRLRAEASTSSSVLKQLSHGTQVDVLSGLVDGWYQVSYKGTTGYVSGEYLTVTE,-0.000126
8,HMFADLNPDENYGQVYIRTNTIDNLYQTLLDNKTRIHPNGLLELKPWGQKEFSILDPDKNLLTFGES,-0.317
9,HMFAERLKELRKMRRFSQHALAERLGISQQAVGKWETGKSTPDPATLREIADIFEVSVDLLLGR,0.124
10,HMFDDEELDRFAGVPADAYLPADEDEFREVFYTMRPGEVVEWVRSLELRHIEIPNGIKDEIFMMIR,-3.37
11,HMFDEDKLIISIGSKVRIIREPYFGTIGKVVELPPELVKMDTEAMLRVAIIKLDDGEKVTIPRANLEVILS,-0.87
12,HMFDEVKDAARRLAALLDQAGGTLTLNDKSAPEEVAALTGMSKKVFKRALGHLMSRSEVVVADGRITKKD,-0.196
13,HMFDGRSDAEKTLDLIKTAIDNILKGGAIQEYKIGTRTAKKYDMAELQVLKGEYAAMVAREKQAETMA,-0.481
14,HMFDGVAAGKPAILDALEDAGGFLPLNSKSSVEEIQASFSFSKRVFKQLIGMLYKERKIVITDDGIRLAD,-0.654
15,HMFDGYQWLKRDIIRGVYQPEEKLRMSLLTNRYGLGVGPLREALSQLVAEHLVTVVSQKGYRVAPM,-0.0817
16,HMFDKNKPVVVEGENAEVALKKVSKYFNVPTEKLDYTLLGQKSAGLLGIGSKVYQFKVWLKREIP,≥ 0.43
17,HMFDLENIRLTLARRLNVAAHLRPKYVAGFTLLLKQNFPEQNAEDLLNRLEHNQWLKVNQREIEYSPRLLM,-1.23
18,HMFDPAKQMQRIRKYAGMNRKEFSEWLNIPYRTMTDWELGNRTMPVYLLELIVYKVNHEIANA,-0.349
19,HMFDREKFIKLGQEFARVAFENVNKRATDRALKTAAKHYGLPSADELLARLGSSEIAARDVVAELYPNL,-0.28
20,HMFDSYDIYDEAGNTVNTVKGKLSWGHLLEIYDRFDNHIGTVQERVLTFLPKFLMYINGQEIGEIR,-0.334
21,HMFDVNSMIAANIVAILKKQNRKQIDLAGALQTNKQTISKMLNGSRMINAIELKRIAEFLGVKMEELTKL,0.0597
22,HMFDVRWEQGYALAAAYAQEYGNLDVPRDYKTADGKKLGRWIQSQEQAYEQKKLSEEQISRLEMIGMQWG,0.0698
23,HMFEDEPSEREIRISTLLAAFLKQEDGGTAVSRERFLKENSDVAEDLQILLEMADMIQEMAGP,-0.744
24,HMFEKIDINFADIHQLKGLPLNSEQINSIIEYRNQNGFIENIYDLKNVNGISIDKVHELKSYIFIIDV,-1.96
25,HMFENPRALLEMMISLGNEQGLINMARDIVSAGEFRRLELAAGGDRRKLARMLIDHLVEVAPRLP,-0.585
26,HMFEQFEVENLQELQQEWGDKFNHNLEMARRAFMNFATPEAVKVLEETGMGNHPELLKVFARIGEVLAED,-1.22
27,HMFERINLIGVNGTTKKRSALVRLLDGEIVKIGVGDSLNGGQVVDISPATLTYLKSGKSIMLTLPK,0.22
28,HMFGQRLRLARKRAGLSMQALAQRMSPPVTAQAISKYEADRMMPSSAVLVGLGKALGVSLDFLMGGQ,0.068

row,Sequence,soluble fraction (log2)
1,HMFHFELNAAKQALEDRKTIDRAKGILMRQRGMSEDDAYKLLRTTAMSQNRKVIDVAQALVTAADLL,0.292
2,HMFINTVELGRAIKRRREELGLSLRDVADVTNVSASTLSRIENGTGKPDADNIARLTGWLDMPIDRVM,0.164
3,HMFIRINQTQNSPRKSVQIVESKRDGHKVRTKILRHVGIAMDDVELQKLKSLAQDIIAKMTVETENASKQ,0.176
4,HMFKINQKVKLIAPLPYLKTSENMPMLRPPDLVAIDEIGEVLSLKSPETVEVRFRRGSFLIDIDKLEKVD,-0.996
5,HMFKYLLDTNIVIYVIKKRPIEVMGVFNQNANRMAISAITFSELQHGAEKSVRVQENLNAIEEFTTLIDI,-0.537
6,HMFKYRELLDWAKNRFDDLEVSIAPKALALLVESIGTDLRLLDSEIQKLSMYKPLEMISTNDVEDLVA,-1.15
7,HMFLTDHEVSKVARKRAHAEYLSSLSWRQRTFGDHGERSKNFEAWYKEHSHLYETEKLYKELYKN,0.245
8,HMFLTPLEEARLVIEEIVIPKNIAVDLSPRPSALRKQQHELIAHYQLKSFSVGNERTKRLRILPKVI,-0.46
9,HMFMLQAKRVPVSELENFKGIVAEDVVSQSRALILPRGSNLSWLSSSAMQNLSTRLALEGVESISIYL,-1.8
10,HMFMVAGHLSEKNGYFYAVINYNDSLGNRKTKWMSTGLTVKGNKKRAEAILAEKRRTFQPDEPV,0.129
11,HMFNDPTMEDALVNLKGITNEVLSYLSSSKIKKLEELAEMSVPELKDIVENISDDEASALIMEARKPWF,-1.32
12,HMFNEFEDIPDIISAEGIDPAMREEVAANLKKYYKNPDAMLALAPLEREYYEKLVGILSEKIELKKEN,-0.361
13,HMFNFPEEVRVQLAKSEQLRNLLIPMSETVRDALSGEELWFGRTIFNTTSKKIESWTNPGVWVE,-1.28
14,HMFNIIARQEIDEILYEYKIENSEDYKNRDPEELAEIYENIKTVQENHDLSDDDVEELLKSIFSDY,-2.2
15,HMFNKTKVPNFIDMNYYEEIEGNSEYDKFNFADPITKNDDTKAPGTVIDQTPEKGTRIDEEKTVIQLTIA,-0.149
16,HMFNRAVSDNEALQVREHFDRDATVMSLAKKYGVSTVTIQRILLGKTYRNVGGPLFDKATLKKRMGN,0.13
17,HMFNVKAYEKAVKSYITKRKPLGEALDEEIMDELSVKFGIVDDALEDLFKQIQDAGISIVDKDGNPSPLAL,-1.78
18,HMFPELEPDEQLIADLLRKTNNLQINIITVRTGLPINRVTALLFQMEMKGVVRPLAGGTYHLLV,-0.389
19,HMFPELSPEEQLIVEVLSKTNDLQVNLISVKTNIDISRLTSLLFTLEMKGVIKTFAGGMYHLL,-0.712
20,HMFPSLSPEEQAVVDVLQRNNDLQINMLSVQSGLTISRLTALLFQLEMKGVIKPLAGGMYHLL,-0.493
21,HMFPTLSPEEQRIVDQLAKENDLQANVIALRTALTIPQISALLFSLEMKGMVRLYAGGTYHLI,-0.142
22,HMFQPEQISKLNELETLVLDFIIKSPDKVQKATIRSLATQLHVSTTTIVRMSTKLGFNGWSELKFFLKNQS,-0.65
23,HMFRDFSETLLRKLQAAGGFLPFTDKTDAEAIAEHFQVSKKTFKRAVGTLYKQRRILIDDEGITLIG,0.252
24,HMFRPDYYEILQVDRHASPEVITAAYRQLLSIYNSEQDGNKQMIKLIQEAYGVLGDSQDRWLYDSWLDNN,-1.37
25,HMFRSNAERAAHLASALPRAEAELAALQARGAATSENIYLRSSYFDALRYTEELRAAKRAQDALQGA,0.0123
26,HMFSAASSQISSYVRSVVDKAQTYEQAYEILAKNPLGFKLDALEDELFRIIANAEILGADDDE,-1.24
27,HMFSNATISGLKAGALVRVYNISGVAVSTLTADAEGKVSVDLNNLPKGVYILSTPSKSFKVLN,0.176
